Data from US20180371433A1 (UNIVERSITY OF FLORIDA RESEARCH FOUNDATION, published 2018).

Experiments:
[1] = target: the molecule itself; test: size exclusion chromatography (Superdex 200); hexamers of ~134 kDa and trimers of ~64 kDa
Procedure: HvPPA (HVO_0729, UniProt: D4GT97) was expressed with an N-terminal poly-histidine tag (His₆) in Hfx. volcanii H26-pJAM2920 (Table 1). Hfx. volcanii cells were grown to stationary phase (OD₆₀₀ of 3-3.5) (4×1-liter cultures in 2.8-liter Fernbach flasks) and harvested by centrifugation (10-15 min at 9,200× g and 25° C.). Cell pellets were resuspended at 5 ml per g wet weight cells in Tris-salt buffer (20 mM Tris-HCl, pH 7.5, 2 M NaCl and 2.5 mM MgCl₂) supplemented with 40 mM imidazole and 1 mini-tablet protease inhibitor cocktail (Roche product no. 05892791001) per 10 ml buffer. Cells were lysed by passing through a French Press (three times at 20,000 psi). Whole cell lysate was clarified by centrifugation (twice for 30 min at 9,200× g and 4° C.) and sequential filtration using 0.8 μm and 0.2 μm cellulose acetate filters (Thermo Scientific Nalgene). Clarified cell lysate was applied to a HisTrap HP column (5 ml, 17-5248-01, GE Healthcare) pre-equilibrated and washed in 100 ml of Tris-salt buffer with 40 mM imidazole. Fractions containing HvPPA were eluted in Tris-salt buffer with a 25 ml gradient from 40 mM to 500 mM imidazole. […] Purity of HvPPA was assessed by Coomassie Blue stained SDS-PAGE gels and PPi activity assay. […]

[2] = target: T1, SAMP1 with deletion of the C-terminal diglycine residues (ΔGG), D4GUF6
T1 chain: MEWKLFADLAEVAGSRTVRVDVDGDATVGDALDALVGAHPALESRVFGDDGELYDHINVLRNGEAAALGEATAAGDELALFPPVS

[3] = target: T2, ubiquitin-like SAMP1, D4GUF6
T2 chain: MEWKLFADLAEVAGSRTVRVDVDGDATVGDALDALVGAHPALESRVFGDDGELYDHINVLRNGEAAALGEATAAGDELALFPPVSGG

Protein	binding result [1]	Pi detected by colorimetric (malachite green) assay in the HvPPA-coupled adenylation assay [2]	Pi detected by colorimetric (malachite green) assay in the HvPPA-coupled adenylation assay [3]
HvPPA with an N-terminal poly-histidine tag (His6-HvPPA) linked with a thrombin-cleavage site (enzyme, Expressed in Hfx. volcanii H26-pJAM2920; Purified by Ni2+ IMAC and SEC as homo-hexamers (~134 kDa) and homo-trimers (~64 kDa); also called HVO_0729; Haloferax volcanii inorganic pyrophosphatase; not shown: N-terminal His6 tag and thrombin-cleavage site from vector pJAM503) MVNLWEDMETGPNAPDEIYAVVECLKGERNKYEYDKDIPGVVLDRVLHSNVHYPSDYGFIPQTYYDDEDPFDVLVLVEDQTFPGCVIEARPVALMKMDDDGEQDDKVIAVPVEDPRYDHIEDLDDIPQQTLDEIDEFFATYKNLEAGKEVETLGWEDKQAAKDAIEHAMDLYEENFA	binds	–	–
UbaA of Hfx. volcanii (protein) MTLSLDATQLDRYSRHIIMDEVGPEGQGRLLSSRVVVVGAGGLGAPAIQYLAAVGVGELVVVDDDVVERSNLQRQVVHCDDDVGTPKAESAAAFVRGLNPDVSVEPVEARVDKSNVHEVVAGSDVVVDASDNFPTRYLLNDVCRFEGIPLVHGAIYKFEGQATTLVPDGPCYRCLFPEAPEPGTVPDCATTGVLGVLPGTVGCIQATEAMKLLLDEGEALDGRLLFYDAMDMTFETVPYRTNPDCPVCGEGGVDSIEDIDYVESCAISLD	–	Deletion of the C-terminal diglycine residues of SAMP1 (ΔGG) were found to significantly reduce the level of Pi detected by this assay	Significant levels of Pi were detected when UbaA and HvPPA were coupled with ATP and SAMP1 in the reaction
